Measurements from patent US20110014209A1 (MACFARLANE BURNET INSTITUTE FOR MEDICAL RESEARCH AND PUBLIC …, published 2011).
Numbering of substitutions follows the chain as printed. Numbers in names are those of the source.

B1: E2Δ2-his mature protein (other)
chain: ETHVTGGNAGRTTAGLVGLLTPGAKQNIQLINTNGSWHINSTALNCNESLNTGWLAGLFYQHKFNSSGCPERLASCGSSGCWHYPPRPCGIVPAKSVCGPVYCFTPSPVVVGTTDRSGAPTYSWGANDTDVFVLNNTRPPLGNWFGCTWMNSTGFTKVCGAPPCVIGGVGNNTLLCPTDCFRKHPEATYSRCGSGPWITPRCMVDYPYRLWHYPCTINYTIFKVRMYVGGVEHRLEAACNWTRGERCDLEDRDRSEHHHHHH
B2: E2Δ3-his mature protein (other)
chain: ETHVTGGNAGRTTAGLVGLLTPGAKQNIQLINTNGSWHINSTALNCNESLNTGWLAGLFYQHKFNSSGCPERLASCRRLTDFAQGWGPISYANGSGLDERPYCWHYPPRPCGIVPAKSVCGPVYCFTPSPVVVGTTDRSGAPTYSWGANDTDVFVLNNTRPPLGNWFGCTWMNSTGFTKVCGAPPCGSSGCPTDCFRKHPEATYSRCGSGPWITPRCMVDYPYRLWHYPCTINYTIFKVRMYVGGVEHRLEAACNWTRGERCDLEDRDRSEHHHHHH
B3: E2 glycoprotein expressed from pE1E2 Δ23 (HVR2 and igVR deletions) (other)
chain: ETHVTGGNAGRTTAGLVGLLTPGAKQNIQLINTNGSWHINSTALNCNESLNTGWLAGLFYQHKFNSSGCPERLASCGSSGCWHYPPRPCGIVPAKSVCGPVYCFTPSPVVVGTTDRSGAPTYSWGANDTDVFVLNNTRPPLGNWFGCTWMNSTGFTKVCGAPPCGSSGCPTDCFRKHPEATYSRCGSGPWITPRCMVDYPYRLWHYPCTINYTIFKVRMYVGGVEHRLEAACNWTRGERCDLEDRDRSELSPLLLSTTQWQVLPCSFTTLPALSTGLIHLHQNIVDVQYLYGVGSSIASWAIKWEYVVLLFLLLADARVCSCLWMMLLISQAEA
notes: also called HVR2+igVR
B4: E2Δ23-his mature protein (other)
chain: ETHVTGGNAGRTTAGLVGLLTPGAKQNIQLINTNGSWHINSTALNCNESLNTGWLAGLFYQHKFNSSGCPERLASCGSSGCWHYPPRPCGIVPAKSVCGPVYCFTPSPVVVGTTDRSGAPTYSWGANDTDVFVLNNTRPPLGNWFGCTWMNSTGFTKVCGAPPCGSSGCPTDCFRKHPEATYSRCGSGPWITPRCMVDYPYRLWHYPCTINYTIFKVRMYVGGVEHRLEAACNWTRGERCDLEDRDRSEHHHHHH
B5: CD81 MBP-LEL containing the F186S mutation (receptor)
chain: FVNKDQIAKDVKQFYDQALQQAVVDDDANNAKAVVKTFHETLDCCGSSTLTALTTSVLKNNLCPSGSNIISNLSKEDCHQKIDDLFSGK
B6: E2-his mature protein (wild type, residues 384-661, strain H77c) (other)
chain: ETHVTGGNAGRTTAGLVGLLTPGAKQNIQLINTNGSWHINSTALNCNESLNTGWLAGLFYQHKFNSSGCPERLASCRRLTDFAQGWGPISYANGSGLDERPYCWHYPPRPCGIVPAKSVCGPVYCFTPSPVVVGTTDRSGAPTYSWGANDTDVFVLNNTRPPLGNWFGCTWMNSTGFTKVCGAPPCVIGGVGNNTLLCPTDCFRKHPEATYSRCGSGPWITPRCMVDYPYRLWHYPCTINYTIFKVRMYVGGVEHRLEAACNWTRGERCDLEDRDRSEHHHHHH

Legend:
[1] = molecular target: B5; test: MBP-LEL ELISA, H53 detection
[2] = molecular target: T1, CD81 MBP-LEL (maltose-binding protein fused to the CD81 large extracellular loop, residues 113-201) (human, UniProt P60033 113-201); test: CD81 MBP-LEL ELISA, purified E2-his proteins, H53 detection
T1 construct: range 113-201
T1 sequence: B5 chain with S74F

[3] = molecular target: T1, CD81 MBP-LEL (maltose-binding protein …); test: CD81 MBP-LEL solid-phase assay, intracellular E2
[4] = molecular target: E2Δ12-his mature protein (hepatitis C virus H77c, UniProt P27958 409-661); test: MBP-LEL ELISA, H53 detection

Row | Binder | binding result [1] | binding result [2] | binding result [3] | binding result [4]
1 | B1 | no binding |  |  | 
2 | B2 | no binding | binds |  | 
3 | B3 |  |  | binds | 
4 | B4 | no binding | binds |  | 
5 | B5 |  |  |  | no binding
6 | B6 | no binding | binds |  | 
